Experimental data taken from patent US20200369776A1 (ADAGENE, published 2020).
Numbering of substitutions follows the chain as printed. Numbers in names are those of the source. Each block holds one binder with its values, some of them ahead of it.

Columns and labels:
Assay in all cases: FACS, HEK293F
[1] = target: human CD137 mutant Hu_PW135AA on HEK293F cells (human, UniProt Q07011 18-255)
Procedure: (§1) Transfected cells were washed in pre-chilled staining buffer (PBS supplemented with 2% FBS), then incubated with 100 nM test antibodies for 1 hr on ice. […] Samples were washed once with staining buffer prior to analysis by flow cytometry.
(§2) To determine the binding regions of the tested antibodies at amino acid residue level, a series of mutations (Table 5) were made at the extracellular domain of human CD137. These CD137 mutation plasmids were used to transfect HEK293F cells.

[2] = target: human CD137 mutant Hu_GT150AA on HEK293F cells (human, UniProt Q07011 18-255)
Procedure: as §1, §2

[3] = target: T1, human CD137 mutant Hu_FSS53AAA on HEK293F cells (human, UniProt Q07011 18-255)
T1 chain: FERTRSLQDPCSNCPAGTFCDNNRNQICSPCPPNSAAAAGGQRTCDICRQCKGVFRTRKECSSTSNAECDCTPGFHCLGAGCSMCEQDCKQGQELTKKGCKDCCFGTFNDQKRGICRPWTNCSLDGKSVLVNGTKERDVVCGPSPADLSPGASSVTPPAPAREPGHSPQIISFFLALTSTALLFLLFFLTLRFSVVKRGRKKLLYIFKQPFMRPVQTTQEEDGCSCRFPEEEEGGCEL
Procedure: as §1, §2

[4] = target: human CD137 mutant Hu_FN125AA on HEK293F cells (human, UniProt Q07011 18-255)
Procedure: as §1, §2

- binding result [1]: binds
- binding result [2]: binds
B1: AG10058 (antibody, human IgG4 S228P, kappa, V domains shown)
VH: EVQLVESGGGLVQPGGSLRLSCAASGFSLSTSGVGVGWIRQAPGKGLEWLALIDWDDDKYYSPSLKSRLTISRDNSKNTLYLQLNSLRAEDTAVYYCARGGSDTVLGDWFAYWGQGTLVTVSS
VL: DIQLTQSPSSLSASVGDRVTITCRASQSVSPYLAWYQQKPGKAPKLLIYDASSLESGVPSRFSGSGSGTDFTLTISSLQPEDFATYYCQQGYSLWTFGQGTKVEIKR
notes: IgG4 (S241P)

- binding result [1]: binds
- binding result [2]: binds
B2: AG10059 (antibody, human IgG4 S228P, kappa, V domains shown)
VH: EVQLVESGGGLVQPGGSLRLSCAASGYSITSGHYWAWIRQAPGKGLEWVSSISGYGSTTYYADSVKGRFTISRDNSKNTLYLQLNSLRAEDTAVYYCARGGSDAVLGDWFAYWGQGTLVTVSS
VL: B1 VL with S28G, V29I, S30G, P31S, Y32F, S53N, S56T, S93Y
notes: IgG4 (S241P)

- binding result [1]: binds
- binding result [3]: binds
- binding result [2]: binds
- binding result [4]: binds
B3: reference antibody AC1121 (antibody, V domains shown)
VH: QVQLQQWGAGLLKPSETLSLTCAVYGGSFSGYYWSWIRQSPEKGLEWIGEINHGGYVTYNPSLESRVTISVDTSKNQFSLKLSSVTAADTAVYYCARDYGPGNYDWYFDLWGRGTLVTVSS
VL: EIVLTQSPATLSLSPGERATLSCRASQSVSSYLAWYQQKPGQAPRLLIYDASNRATGIPARFSGSGSGTDFTLTISSLEPEDFAVYYCQQRSNWPPALTFGGGTKVEIK
